From article PMC6751169 come the findings set out here.

In experiment [1] the target is T1, MenDRA (MenD-RIAD with one RIAD peptide tag) (E. coli).
T1 sequence (P17109 whole entry, looked up): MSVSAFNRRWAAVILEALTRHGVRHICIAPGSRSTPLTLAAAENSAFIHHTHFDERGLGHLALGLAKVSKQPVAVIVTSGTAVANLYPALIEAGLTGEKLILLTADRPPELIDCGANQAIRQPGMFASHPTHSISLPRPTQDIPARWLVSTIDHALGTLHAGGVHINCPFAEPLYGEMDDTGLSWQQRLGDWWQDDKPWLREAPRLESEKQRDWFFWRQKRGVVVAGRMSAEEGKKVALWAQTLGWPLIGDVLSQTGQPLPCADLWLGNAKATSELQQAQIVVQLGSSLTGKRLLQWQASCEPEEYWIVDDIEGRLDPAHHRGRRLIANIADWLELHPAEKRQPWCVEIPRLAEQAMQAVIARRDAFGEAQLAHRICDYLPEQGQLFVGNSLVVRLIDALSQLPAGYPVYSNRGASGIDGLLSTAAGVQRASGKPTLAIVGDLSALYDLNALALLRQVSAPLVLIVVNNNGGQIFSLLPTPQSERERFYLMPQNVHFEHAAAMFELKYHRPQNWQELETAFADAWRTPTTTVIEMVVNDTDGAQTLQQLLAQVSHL
Kind of experiment: SEC; 1.5 mg of enzyme fused with RIAD mixed with two-fold molar excess of enzyme fused with RIDD in Tris buffer pH 7.8, 1 mM EDTA, 0.02% Tween-20, no incubation; Superdex 200 10/300 GL, 0.4 mL/min, Tris pH 7.8, 50 mM NaCl; masses from a calibration curve. On the technique in general: Size exclusion chromatography separates by hydrodynamic size, large species first.

Experiment [2] addresses T2, MenDRA2 (MenD-RIAD-RIAD with two sequential RIAD peptide tags) (E. coli).
T2 sequence (P17109 whole entry, looked up): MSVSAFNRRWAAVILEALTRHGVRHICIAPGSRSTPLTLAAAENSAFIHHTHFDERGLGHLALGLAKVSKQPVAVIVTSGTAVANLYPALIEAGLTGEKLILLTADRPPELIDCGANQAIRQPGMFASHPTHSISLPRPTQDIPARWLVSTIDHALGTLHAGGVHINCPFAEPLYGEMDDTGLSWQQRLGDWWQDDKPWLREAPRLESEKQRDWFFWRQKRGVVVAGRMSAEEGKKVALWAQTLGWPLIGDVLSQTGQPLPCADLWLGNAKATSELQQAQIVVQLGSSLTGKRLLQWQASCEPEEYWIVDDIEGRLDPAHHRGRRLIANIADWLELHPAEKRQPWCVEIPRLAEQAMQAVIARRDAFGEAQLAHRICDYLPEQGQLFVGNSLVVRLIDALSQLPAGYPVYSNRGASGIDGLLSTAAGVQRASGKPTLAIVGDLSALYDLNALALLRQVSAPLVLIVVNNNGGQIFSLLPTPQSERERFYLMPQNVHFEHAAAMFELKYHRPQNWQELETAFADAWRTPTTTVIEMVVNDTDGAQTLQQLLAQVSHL
The description is as above.

B1: MenHRD (MenH-RIDD with one RIDD peptide tag), P10644 1-44 (enzyme)
chain: MILHAQAKHGKPGLPWLVFLHGFSGDCHEWQEVGEAFADYSRLYVDLPGHGGSAAISVDGFDDVTDLLRKTLVSYNILDFWLVGYSLGGRVAMMAACQGLAGLCGVIVEGGHPGLQNAEQRAERQRSDRQWVQRFLTEPLTAVFADWYQQPVFASLNDDQRRELVALRSNNNGATLAAMLEATSLAVQPDLRANLSARTFAFYYLCGERDSKFRALAAELAADCHVIPRAGHNAHRENPAGVIASLAQILRFGGGGSGGGGSGGGGSSLRECELYVQKHNIQALLKDSIVQLCTARPERPMAFLREYFEKLEKEEAK
modifications: not checked
For B1, the stoichiometry N (MenH per 4 MenD (per particle)) in experiment [1] is 8; in experiment [2], 16.
